Laboratory results as given in US11840574B2, “Anti-DR5 antibody and use thereof” (DONG-A ST CO., LTD., priority 2017, dated 2023).
Changes are numbered by the printed parent chain.

B1: DA22: humanized or deimmunized variant of parental clone D0; CDRs SEQ ID NO 1, 2, 8 / 4, 10, 13 (antibody, V domains shown)
VH: EVQLVESGGGLVQPGGSLRLSCAASGFTFSSFNMLWVRQAPGKGLEWVAGIGKSDRYTGYGSAVKGRFTISRDDSKSTVYLQMNSLRAEDTAVYYCVRDAGSPCGSGGWTGACIDTWGQGTLVTVSS
VL: DIQMTQSPSSLSASVGDRVTITCSGGDSYAGSYYYGWYQQKPGKAPKTLIYNNNNRPSGVPSRFSGSTSGTDFTLTISSLQPEDFATYYCGSRDSSYVGIFGQGTKVEIK
B2: DA23: humanized or deimmunized variant of parental clone D0; CDRs SEQ ID NO 1, 2, 9 / 4, 10, 13 (antibody, V domains shown)
VH: B1 VH with S106K
VL: B1 VL
B3: DA29: humanized or deimmunized variant of parental clone D0; CDRs SEQ ID NO 1, 2, 7 / 4, 10, 13 (antibody, V domains shown)
VH: AVTLDESGGGLQTPGGGLSLVCKGSGFTFSSFNMLWVRQAPGKGLEWVAGIGKSDRYTGYGSAVKGRATISRDDGQSTARLQLNNLRAEDTGTYYCVKDAGSGCGSGGWTGACIDTWGHGTEVIVSS
VL: LTQPSSVSANLGGTVEITCSGGDSYAGSYYYGWYQQKAPGSAPVTVIYNNNNRPSNIPSRFSGSTSGSTATLTITGVQAEDEATYFCGSRDSSYVGIFGAGTTLTVL

Key:
[1] = biological target: T1, Human DR5 (Homo sapiens, UniProt O14763); experiment: Binding affinity of antibody to human DR5 (BIAcore, CM5 chip); conditions: for Ka(1/Ms): association rate, Human DR5, 1:1 Langmuir binding model; for Kd: equilibrium dissociation constant, Human DR5
Procedure: In order to measure affinity, human DR5 was coupled to carboxylated dextran biosensor chips (CM5, GE) according to the manufacturer's instruction. Association and dissociation rates were assessed by injecting IgG proteins that were 2-fold serially diluted to 5 nM, 2.5 nM, 1.25 nM, 0.625 nM, 0.313 nM, and 0.156 nM.
Association and dissociation rates were depicted in association and dissociation sensorgrams and calculated using a simple 1:1 Langmuir binding model (BIAcore X100 Evaluation Software, ver. 2.0). The equilibrium dissociation constants (KD), which is the ratio of dissociation constant (Kd) to association constant (Ka), were confirmed to be in the sub-nanomolar range. Measurements of the binding of antibody D0 and DA1 to DA35 of the present disclosure to DR5 are given in Table 11 below (antibody names are given as the names of the clones from which the antibodies were derived). A representative sensorgram for D0 is depicted in FIG. 1.

[2] = Pharmacokinetics of antibody in nude mice (plasma ELISA); assay type: in vivo; conditions: intravenous, 10 mg/kg
Procedure: In order to examine in vivo kinetics of the antibodies constructed above, blood half-life was evaluated in mice. Antibodies were intravenously injected at doses of 1-10 mg/kg into nude mice. Blood was sampled from the orbital vein from 5 min to 14 days after injection. The blood collection was conducted using heparinized capillary tubes. Plasma obtained by centrifugation of the blood samples was diluted at certain ratios and used as samples for ELISA evaluation. Human DR5 diluted to a concentration of 10 ng/ml was plated at 100 μl per well onto 96-well immune plates (Nunc, U.S.A.) and adsorbed to the wells for 12-14 hours. The plates were washed three times with buffer solution containing 0.1% Tween 20 and blocked with buffer solution containing bovine serum albumin (Sigma, U.S.A.) at room temperature for 1 hour. After three rounds of washing with buffer solution, the plates were incubated with each of the mouse plasma dilutions and a serial dilution of standard substance at room temperature for 2 to 3 hours. After three washes with buffer solution, a 1:20000 dilution of an HRP-conjugated anti-human immunoglobulin Fc (Fc-HRP) antibody (Bethyl, U.S.A.) was added at a volume of 100 μl per well and incubated at room temperature for 1 hour. After washing three times, 100 μl of a TMB solution (Sigma, U.S.A.) was added to each well and allowed to react. When the color development reached a certain level, the reaction was terminated with 0.2 N sulfuric acid solution. Absorbance at 450 nm was measured using a spectrophotometer (Molecular Device, U.S.A.). The antibody concentration in each plasma sample was calculated from the optical density (OD) measurements, and pharmacokinetic parameters were estimated using WinNonLin ver. 6.2.0.495.

[3] = biological target: T1, Human DR5; experiment: TRAIL competitive enzyme-linked immunosorbent assay; assay type: binding; conditions: 0.01-400 nM of TRAIL protein, absorbance at 405 nm
Procedure: In order to examine antigen-binding characteristics of the antibodies selected in Example 3, a TRAIL competitive enzyme-linked immunosorbent assay was conducted. ELISA plates were coated with 0.1 μg/ml human DR5 (R&D systems, U.S.A.) at 4° C. Thereafter, the plates were incubated with 0.01 nM-1440 nM of antibodies (D0, DA20, DA21, DA21, DA22, and DA23) together with 0.01-400 nM of TRAIL protein for 2 hours. After the plates were washed three times with PBST (0.1% bovine serum albumin and Tween-20 in PBS), HRP (horse radish peroxidase)-conjugated anti-human immunoglobulin Fc was added to each well and incubated for 1 hour. After three washes with PBST, color development was performed for 20 min with ABTS (Thermo, U.S.A.). When the color development reached to a certain level, the reaction was terminated with 1 N sulfuric acid. Absorbance at 405 nm was measured using a spectrophotometer (Molecular Device, U.S.A.) and is depicted in FIGS. 8a and 8b. The antibody AP disclosed in Example (7-1) was used as a control.

[4] = test system: human colorectal cancer cell line Colo205; experiment: Cell death activity upon co-treatment with TRAIL, Colo205; assay type: cell-based; conditions: Colo205, antibody as low as 10 ng/ml, TRAIL 0.5, 1, 10 ng/ml
Procedure: (§1) Antibody properties according to epitopes were analyzed in terms of cell death activity upon co-treatment with the constructed antibodies and TRAIL. In this test, the human colorectal cancer cell line Colo205 (ATCC, U.S.A.) and the human pancreatic cell line Miapaca-2 (ATCC, U.S.A.) were employed. The tumor cells were suspended at a concentration of 1×10^5 cells/ml and the suspensions were plated at 50 μl per well into 96-well culture plates, followed by incubation for 16-24 hours in a constant temperature and humidity chamber. Serial dilutions of the antibodies (0.1-10000 ng/ml) and TRAIL protein at determined concentrations (0.5, 1, 10 ng/ml) were applied in combination to the 96-well plates. After incubation for 48 to 72 hours at a constant temperature in a humidified condition, a resazurin solution (Invitrogen, U.S.A.) was added at an amount of 10 μl to per well. When the reaction reached a certain level after 1 to 2 hours, fluorescence was read at 590 nm using a spectrophotometer (Molecular Device). Cell viability was calculated as the percentage of relative fluorescence units (RFU) of a test substance-treated group (treated RFU) to the relative fluorescence units of a culture medium-treated group (untreated RFU) (Cell viability (%)=treated RFU/Untreated RFU×100).
(§2) Representative results are depicted in FIGS. 9a (Colo205) and 9b (Miapaca-2). […]

[5] = test system: human pancreatic cell line Miapaca-2; experiment: Cell death activity upon co-treatment with TRAIL, Miapaca-2; assay type: cell-based; conditions: Miapaca-2, antibody as low as 10 ng/ml, TRAIL 0.5, 1, 10 ng/ml
Procedure: as §1, §2

[6] = test system: caspase-3/7; experiment: Intracellular caspase activity (Apo-ONE Caspase-3/7), Colo205; assay type: cell-based, human; conditions: Colo205, Ab alone or Ab linked, 4 hours
Procedure: (§3) In order to investigate the cell death mechanism thereof, the constructed antibodies were assayed for caspase activity. The activity of caspase-3/7 was measured using Apo-ONE® Homogeneous Caspase-3/7 Assay kit (Promega, U.S.A.). In this assay, the human colorectal cancer cell line Colo205 (ATCC, U.S.A.), the human pancreatic cancer cell line Miapaca-2 (ATCC, U.S.A.), and the lung cancer cell line H2122 (ATCC, U.S.A.) were employed. A suspension of each tumor cell line having a concentration of 1×10^5 cells/ml was plated at a volume of 50 μl per well into 96-well cell culture plates and cultured for 16-24 hours in a constant temperature and humidity chamber. The cells were treated with predetermined concentrations (0.01-10000 ng/ml) of the antibody alone (Ab alone) or in combination with a crosslinking antibody (anti-human Fc) (Serotec, U.S.A.) (Ab linked) and then cultured for 4 hours. […] When the reaction reached a predetermined level, fluorescence was read at 520 nm using a spectrophotometer (Molecular Device). Caspase activity was calculated as a fold increase of relative fluorescence units (RFU) of a test substance-treated group (treated RFU) to over the relative fluorescence units of a culture medium-treated group (untreated RFU) (Caspase activity=treated RFU/Untreated RFU). […]

[7] = test system: caspase-3/7; experiment: Intracellular caspase activity (Apo-ONE Caspase-3/7), H2122; assay type: cell-based, human; conditions: H2122, Ab alone or Ab linked, 4 hours
Procedure: as §3

[8] = test system: caspase-3/7; experiment: Intracellular caspase activity (Apo-ONE Caspase-3/7), Miapaca-2; assay type: cell-based, human; conditions: Miapaca-2, Ab alone or Ab linked, 4 hours
Procedure: as §3

[9] = test system: human pancreatic cancer cell line Miapaca-2; experiment: Tumor cell death assay, co-treatment with gemcitabine, Miapaca-2; assay type: cell-based; conditions: Miapaca-2, gemcitabine 3 nM-300 nM, 48 to 72 hours
Procedure: (§4) Effects obtained from co-treatment with the above constructed antibody and gemcitabine were evaluated using in vitro tumor cell death assay.
(§5) The human pancreatic cancer cell lines Miapaca-2 (ATCC, U.S.A.) and Panc-1 (ATCC, U.S.A.) were each suspended at a density of 1×10^5 cells/ml. The suspensions were added in an amount of 50 μl to each well of 96-well cell culture plates and incubated for 16-24 hours in a constant temperature and humidity chamber. The cancer cell lines were treated with the anti-DR5 antibodies of the present disclosure including D0 in combination with certain concentrations (3 nM-300 nM) of gemcitabine and cultured for 48 to 72 hours. The cells were further incubated for 1 to 3 hours after addition of 10 μl of a resazurin solution (Invitrogen, U.S.A.) per well. When the reaction proceeded to a predetermined level, fluorescence was read at 590 nm using a spectrophotometer (Molecular Device). Cell viability was calculated as the percentage of relative fluorescence units (RFU) of a test substance-treated group (treated RFU) to relative fluorescence units of a culture medium-treated group (untreated RFU) (Cell viability (%)=treated RFU/Untreated RFU×100). The results are depicted in FIGS. 6a to 6r. Representative results are depicted in FIGS. 11a (Miapaca-2) and 11b (Panc-1). For comparison, the control antibody AP was treated in the same manner

[10] = test system: human pancreatic cancer cell line Panc-1; experiment: Tumor cell death assay, co-treatment with gemcitabine, Panc-1; assay type: cell-based; conditions: Panc-1, gemcitabine 3 nM-300 nM, 48 to 72 hours
Procedure: as §4, §5

| Molecule | Ka(1/Ms) [1] | Kd [1] [nM] | Cmax [2] [µg/mL] | t½ Terminal (2 d~14 d) [2] [h] | t½ initial (−1 d) [2] [h] | antigen binding in the presence of TRAIL [3] | cell death activity in combination with TRAIL, compared to antibody alone [4] | cell death activity in combination with TRAIL, compared to antibody alone [5] | activity of caspase-3/7 [6] | activity of caspase-3/7 [7] | activity of caspase-3/7 [8] | apoptotic activity upon co-treatment with gemcitabine relative to each individual substance [9] | apoptotic activity upon co-treatment with gemcitabine relative to each individual substance [10] |
| --- | --- | --- | --- | --- | --- | --- | --- | --- | --- | --- | --- | --- | --- |
| B1 | 9.32 × 10^05 1/Ms | 0.0342 | 227.9 | 201 | 16.8 | maintained a certain level of antigen binding irrespective of TRAIL concentrations |  |  |  |  |  |  |  |
| B2 | 6.96 × 10^05 1/Ms | 0.0403 | 195.8 | 191 | 13.9 | maintained a certain level of antigen binding irrespective of TRAIL concentrations | higher cell death activity | higher cell death activity |  |  |  |  |  |
| B3 | 1.21 × 10^06 1/Ms | 0.0698 |  |  |  |  |  |  | increase in the activity of casapse-3/7 | increase in the activity of casapse-3/7 | increase in the activity of casapse-3/7 | increased apoptotic activity | increased apoptotic activity |
